Data reported in US6897294 (Genentech, dated 2005).

B1: vascular endothelial growth factor VEGF165 (ligand, UniProt P15692-4 27-191, looked up)
chain: APMAEGGGQNHHEVVKFMDVYQRSYCHPIETLVDIFQEYPDEIEYIFKPSCVPLMRCGGCCNDEGLECVPTEESNITMQIMRIKPHQGQHIGEMSFLQHNKCECRPKKDRARQENPCGPCSERRKHLFVQDPQTCKCSCKNTDSRCKARQLELNERTCRCDKPRR
notes: mature; also called VEGF ligand

How the values were obtained:
[1] = target: T1, flt-1(2)/FLT4 chimeric receptor (human, UniProt P35916 25-1363); assay: saturation binding of 125I-VEGF to transiently transfected 293 cells, Scatchard analysis
T1 construct: Stably expressed in NIH 3T3 cells for thymidine incorporation; also called flt-1 domain 2/FLT4 chimeric receptor
Method: (§1) After preparation of these expression constructs, 293 cells were transfected with the constructs via DEAE-Dextran and transiently-expressing cells were analyzed for the ability to bind to the VEGF ligand. To detect binding of the VEGF ligand, a saturation binding assay was performed on transiently-expressing 293 cells expressing the intact FLT4 receptor, the flt-1 domain 2/FLT4 chimeric receptor, the flt-1 domains 1–3/FLT4 chimeric receptor, or the intact flt-1 receptor. […] The cell mixture was then layered over a 0.75 ml cushion of 30% sucrose, centrifuged for 10 minutes at maximum speed, and the pellet was recovered and counted in a gamma counter. […] The amount of counts added and the recovered counts bound were then subjected to scatchard analysis.

[2] = target: T2, flt(1,2): flt-1 Ig-like domains 1 and 2 only fused to the Fc of IgG (human, UniProt P01857-1 104-330 = IgG part, limits assumed); assay: 125I-VEGF165 binding to chimeric protein captured on anti-human Fc coated plates (FIG. 4)
T2 construct: domain: Fc of IgG; The true C-terminal limit may therefore be 225
Method: (§2) Binding assays with the soluble chimeric VEGF receptors generated in Example 1 above were performed essentially as described by Park et al., *J. Biol. Chem.* 269:25646–25654 (1994). […] Plates were blocked for 1 hr with 10% fetal bovine serum in PBS (buffer B). After removal of the blocking buffer, 100 µl of a binding cocktail was added to each well. […] The specific activity of the iodinated VEGF was 5.69 ×10^7 cpm/microgram. Incubation in the coated wells proceeded for 4 hrs at room temperature, followed by 4 washes with buffer B. Binding was determined by counting individual wells in a gamma counter. Data was analyzed using a 4-parameter non-linear curve fitting program (Kalidagraph, Abelbeck Software).

[3] = target: T3, flt(2): flt-1 Ig-like domain 2 only fused to the Fc of IgG (human, UniProt P01857-1 104-330 = IgG part, limits assumed); assay: as above
T3 construct: domain: Fc of IgG
Method: as §2

[4] = target: T4, flt-1 extracellular domain/IgG Fc chimera (flt-1/IgG) (human, UniProt P17948 27-758); assay: unlabeled VEGF titrated against 125I-VEGF165 binding to 1 ng immunoreactive flt-1/IgG on anti-Fc plates; 4-parameter fit (FIG. 5)
T4 construct: Secreted from CEN4 cells and used as conditioned medium quantified by Fc ELISA; also called intact flt-1/IgG chimeric VEGF receptor protein; native flt-1/IgG; not shown: Fc of human IgG1 (amino acids 216-443 of the Capon IgG gamma-1 heavy chain clone)
Method: as §2
Binding assays were performed essentially as described above. […] This occurs at the point of inflection of the curve. […] Thus, the flt(1, 2, 3) deletion chimera behaves in a similar fashion to the intact flt-1/IgG chimeric protein with respect to binding to the VEGF ligand.

[5] = target: B1; assay: saturation binding of 125I-VEGF to transiently transfected 293 cells, background of non-transfected cells subtracted
Method: as §1

[6] = target: B1; assay: saturation binding of 125I-VEGF to transiently transfected 293 cells, Scatchard analysis
Method: as §1

T4 sequence (P17948 other isoform, or with tags, fused parts or gaps mutant limits assumed): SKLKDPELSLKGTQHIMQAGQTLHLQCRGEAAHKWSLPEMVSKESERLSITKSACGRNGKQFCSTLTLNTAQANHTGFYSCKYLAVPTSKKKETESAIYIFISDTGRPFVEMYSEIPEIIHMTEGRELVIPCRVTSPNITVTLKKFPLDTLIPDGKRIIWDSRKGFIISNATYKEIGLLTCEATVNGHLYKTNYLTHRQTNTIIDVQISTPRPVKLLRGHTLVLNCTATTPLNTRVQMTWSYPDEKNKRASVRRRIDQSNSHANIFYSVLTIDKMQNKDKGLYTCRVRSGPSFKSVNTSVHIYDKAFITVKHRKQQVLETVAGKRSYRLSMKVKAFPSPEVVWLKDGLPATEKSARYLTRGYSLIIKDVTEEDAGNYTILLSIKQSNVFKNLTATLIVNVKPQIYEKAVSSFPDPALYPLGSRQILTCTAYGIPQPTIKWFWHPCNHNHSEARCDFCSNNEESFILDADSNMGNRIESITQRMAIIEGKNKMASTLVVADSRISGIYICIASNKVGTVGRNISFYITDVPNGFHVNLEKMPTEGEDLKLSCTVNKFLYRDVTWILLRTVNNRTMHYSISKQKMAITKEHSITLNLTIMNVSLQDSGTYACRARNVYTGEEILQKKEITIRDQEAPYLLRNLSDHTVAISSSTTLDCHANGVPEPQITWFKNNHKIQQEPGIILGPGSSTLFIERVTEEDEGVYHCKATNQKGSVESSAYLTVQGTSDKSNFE
T3 sequence (P01857 other isoform, or with tags, fused parts or gaps limits assumed): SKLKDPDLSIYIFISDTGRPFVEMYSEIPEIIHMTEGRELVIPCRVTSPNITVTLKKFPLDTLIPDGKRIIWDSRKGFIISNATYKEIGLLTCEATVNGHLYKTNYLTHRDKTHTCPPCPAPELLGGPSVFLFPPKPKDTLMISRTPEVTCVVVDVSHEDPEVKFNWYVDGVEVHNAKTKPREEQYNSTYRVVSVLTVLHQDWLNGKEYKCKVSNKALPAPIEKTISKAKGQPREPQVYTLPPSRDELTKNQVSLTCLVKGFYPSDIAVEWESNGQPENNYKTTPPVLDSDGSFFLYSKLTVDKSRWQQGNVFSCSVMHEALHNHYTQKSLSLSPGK
T2 sequence (P01857 other isoform, or with tags, fused parts or gaps limits assumed): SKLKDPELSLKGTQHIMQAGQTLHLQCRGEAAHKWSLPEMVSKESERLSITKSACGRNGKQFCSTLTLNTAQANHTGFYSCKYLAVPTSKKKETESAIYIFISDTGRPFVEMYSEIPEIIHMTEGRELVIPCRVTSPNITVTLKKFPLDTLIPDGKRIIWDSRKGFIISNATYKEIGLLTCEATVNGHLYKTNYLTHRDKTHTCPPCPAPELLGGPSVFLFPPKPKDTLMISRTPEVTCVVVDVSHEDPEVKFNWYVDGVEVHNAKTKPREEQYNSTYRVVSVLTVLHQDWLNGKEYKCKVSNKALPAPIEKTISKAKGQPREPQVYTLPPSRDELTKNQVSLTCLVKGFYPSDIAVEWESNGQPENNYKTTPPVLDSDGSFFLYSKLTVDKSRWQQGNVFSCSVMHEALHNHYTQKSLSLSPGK

B1
Kd [1]: ~0.0102 nM
binding result [2]: no binding
binding result [3]: no binding
IC50 [4]: 1.89 ng/mL

B2: intact FLT4 receptor (receptor)
chain: YSMTPPTLNITEESHVIDTGDSLSISCRGQHPLEWAWPGAQEAPATGDKDSEDTGVVRDCEGTDARPYCKVLLLHEVHANDTGSYVCYYKYIKARIEGTTAASSYVFVRDFEQPFINKPDTLLVNRKDAMWVPCLVSIPGLNVTLRSQSSVLWPDGQEVVWDDRRGMLVSTPLLHDALYLQCETTWGDQDFLSNPFLVHITGNELYDIQLLPRKSLELLVGEKLVLNCTVWAEFNSGVTFDWDYPGKQAERGKWVPERRSQQTHTELSSILTIHNVSQHDLGSYVCKANNGIQRFRESTEVIVHENPFISVEWLKGPILEATAGDELVKLPVKLAAYPPPEFQWYKDGKALSGRHSPHALVLKEVTEASTGTYTLALWNSAAGLRRNISLELVVNVPPQIHEKEASSPSIYSRHSRQALTCTAYGVPLPLSIQWHWRPWTPCKMFAQRSLRRRQQQDLMPQCRDWRAVTTQDAVNPIISLDTWTEFVQGKNKTVSKLVIQNANVSAMYKCVVSNKVGQDERLIYFYVTTIPDGFTIESKPSEELLEGQPVLLSCQADSYKYEHLRWYRLNLSTLHDAHGNPLLLDCKNVHLFATPLAASLEEVAPGARHATLSLSIPRVAPEHEGHYVCEVQDRRSHDKHCHKKYLSVQALEAPRLTQNLTDLLVNVSDSLEMQCLVAGAHAPSIVWYKDERLLEEKSGVDLADSNQKLSIQRVREEDAGRYLCSVCNAKGCVNSSASVAVEGSEDKGSMEIVILVGTGVIAVFFWVLLLLIFCNMRRPANADIKTGYLSIIMDPGEVPLEEQCEYLSYDASQWEFPRERLHLGRVLGYGAFGFVVEASAFGIHKGSSCDTVAVKMLKEGASASEHRALMSELKILIHIGNHLNVVNLLGACTKPQGPLMVIVEFCKYGNLSNFLRAKRDAFSPCAEKSPEQRGRFRAMVELARLDRRRPGSSDRVLFARFSKSEGGARRASPDQEAEDLWLSPLTMEDLVCYSFQVARGMEFLASRKCIHRDLAARNILLSESDVVKICDFGLARDIYKDPDYVRKGSARLPLKWMAPESIFDKVYTTQSDVMSFGVLLWEIFSLGASPYPGVQINEEFCQRLRDGTRMRAPELATPAIRRIMLNCWSGDPKARPAFSEVLEILGDLLQGRGLQEEEEVCMAPRSSQSSEEGSFSQVSTMALHIIQADAEDSPPSLQRHSLAARYYNWVSFPGCLARGAETRGSSRMKTFEEFPMTPTTYKGSVDNQTDSGMVLASEEFEQIESRHRQESGFSCKGPGQNVAVTRAHPDSQGRRRRPERGARGGQVFYNSEYGELSEPSEEDHCSPSARVTFFTDNSY
notes: Transiently expressed on 293 cells; also called entire human FLT4 receptor
binding result [5]: no binding

B3: flt-1(1, 2, 3)/FLT4 chimeric receptor (receptor)
chain: YSMTPPTLSLKGTQHIMQAGQTLHLQCRGEAAHKWSLPEMVSKESERLSITKSACGRNGKQFCSTLTLNTAQANHTGFYSCKYLAVPTSKKKETESAIYIFISDTGRPFVEMYSEIPEIIHMTEGRELVIPCRVTSPNITVTLKKFPLDTLIPDGKRIIWDSRKGFIISNATYKEIGLLTCEATVNGHLYKTNYLTHRQTNTIIDVQISTPRPVKLLRGHTLVLNCTATTPLNTRVQMTWSYPDEKNKRASVRRRIDQSNSHANIFYSVLTIDKMQNKDKGLYTCRVRSGPSFKSVNTSVRVHENPFISVEWLKGPILEATAGDELVKLPVKLAAYPPPEFQWYKDGKALSGRHSPHALVLKEVTEASTGTYTLALWNSAAGLRRNISLELVVNVPPQIHEKEASSPSIYSRHSRQALTCTAYGVPLPLSIQWHWRPWTPCKMFAQRSLRRRQQQDLMPQCRDWRAVTTQDAVNPIESLDTWTEFVEGKNKTVSKLVIQNANVSAMYKCVVSNKVGQDERLIYFYVTTIPDGFTIESKPSEELLEGQPVLLSCQADSYKYEHLRWYRLNLSTLHDAHGNPLLLDCKNVHLFATPLAASLEEVAPGARHATLSLSIPRVAPEHEGHYVCEVQDRRSHDKHCHKKYLSVQALEAPRLTQNLTDLLVNVSDSLEMQCLVAGAHAPSIVWYKDERLLEEKSGVDLADSNQKLSIQRVREEDAGRYLCSVCNAKGCVNSSASVAVEGSEDKGSMEIVILVGTGVIAVFFWVLLLLIFCNMRRPAHADIKTGYLSIIMDPGEVPLEEQCEYLSYDASQWEFPRERLHLGRVLGYGAFGKVVEASAFGIHKGSSCDTVAVKMLKEGATASEHRALMSELKILIHIGNHLNVVNLLGACTKPQGPLMVIVEFCKYGNLSNFLRAKRDAFSPCAEKSPEQRGRFRAMVELARLDRRRPGSSDRVLFARFSKTEGGARRASPDQEAEDLWLSPLTMEDLVCYSFQVARGMEFLASRKCIHRDLAARNILLSESDVVKICDFGLARDIYKDPDYVRKGSARLPLKWMAPESIFDKVYTTQSDVWSFGVLLWEIFSLGASPYPGVQINEEFCQRLRDGTRMRAPELATPAIRRIMLNCWSGDPKARPAFSELVEILGDLLQGRGLQEEEEVCMAPRSSQSSEEGSFSQVSTMALHIAQADAEDSPPSLQRHSLAARYYNWVSFPGCLARGAETRGSSRMKTFEEFPMTPTTYKGSVDNQTDSGMVLASEEFEQIESRHRQESGFSCKGPGQNVAVTRAHPDSQGRRRRPERGARGGQVFYNSEYGELSEPSEEDHCSPSARVTFFTDNSY
notes: Stably expressed in NIH 3T3 cells for thymidine incorporation; also called flt-1 domains 1-3/FLT4 chimeric receptor
Kd [6]: ~0.0104 nM
